T1: full length cynomolgus BTLA expressed in a Jurkat T cell line (cynomolgus monkey, UniProt Q7Z6A9 31-289 (human entry))
T1 chain: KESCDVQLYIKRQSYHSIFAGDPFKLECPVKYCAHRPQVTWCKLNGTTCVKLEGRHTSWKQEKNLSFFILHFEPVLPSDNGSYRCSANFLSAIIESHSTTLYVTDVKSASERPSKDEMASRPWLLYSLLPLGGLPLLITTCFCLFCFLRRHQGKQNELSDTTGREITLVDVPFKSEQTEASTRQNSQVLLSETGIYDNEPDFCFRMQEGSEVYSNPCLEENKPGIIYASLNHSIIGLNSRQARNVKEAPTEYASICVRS


Columns and labels:
Assay in all cases: cell-based or functional assay
[1] = target: T2, chimeric BTLA of humanised-BTLA mice (human extracellular region, murine transmembrane and signaling … (human; mouse, UniProt Q7TSA3 184-306, limits assumed)
T2 sequence (Q7TSA3 other isoform, or with tags, fused parts or gaps mutant limits assumed): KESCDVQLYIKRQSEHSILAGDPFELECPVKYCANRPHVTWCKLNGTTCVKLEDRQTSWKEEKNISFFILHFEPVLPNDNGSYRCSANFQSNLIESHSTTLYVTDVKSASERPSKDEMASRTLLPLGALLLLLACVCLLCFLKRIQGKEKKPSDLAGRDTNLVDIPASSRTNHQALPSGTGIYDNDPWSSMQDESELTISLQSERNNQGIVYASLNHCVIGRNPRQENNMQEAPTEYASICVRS

[2] = target: full length human BTLA expressed in a Jurkat T cell line (human, UniProt Q7Z6A9 31-289)
[3] = target: T1, full length cynomolgus BTLA expressed …
[4] = target: T2, chimeric BTLA of humanised-BTLA mice …; remark: listed apart in the source

Row | Binder | AntiCD3/CD28 (CD4 T cell proliferation) repeat 1, % inhibition [1] | AntiCD3/CD28 (CD4 T cell proliferation) repeat 2, % inhibition [1] | AntiCD3/CD28 (CD69+ CD4 T cells) repeat 1, % inhibition [1] | AntiCD3/CD28 (CD69+ CD4 T cells) repeat 2, % inhibition [1] | MLR (CD4 T cell proliferation) repeat 1, % inhibition [1] | MLR (CD4 T cell proliferation) repeat 2, % inhibition [1] | T cell reporter (NFkB signaling), % inhibition [2] | IC50, inhibition of NFkB-GFP reporter in BTLA transfected Jurkat cells [3] | IC50, inhibition of CD4 T cell proliferation in a mixed lymphocyte reaction [4]
1 | 14D4 (antibody, IgG1, V domains shown) VH: QVQLQQPGAELVKPRASVKLSCKASGYTFTSYWMHWVKQRPGQGLEWIGMIHPNNGIPNYNEKFKSKATLTVDKSSTTAYMQLSSLTSEDSAVYHCAREGYYGSEGYFDVWGTGTTVTVSS VL: QIVLTQSPAIMSASPGEKVTMTCSASSSISYIHWYQQKPGTSPKRWIYDTSKLASGVPARFSGSGSGTSYSLTISSMEAEDAATYYCHQRSTYPYTFGGGTKLEIK | 24% | 29% | 43% | 52% | 39% | 26% | 16% | – | –
2 | 11.5.1 (antibody, IgG1, V domains shown) VH: EVQLQESGPSLVKPSQTLSLTCSVTGDSITSAYWNWIRKFPGNKLEYMGYISYSGSTYFNPSLKSRISITRNTSKNQYYLQLNSVTTEDTATYYCARSHYYGYYFDYWGHGTTLTVSS VL: DIVLTQSPASLAVSLGQRATISCRASETIDSYGDSLMHWYQQKAGQPPKLLIYRASNLESGIPARFSGSGSRTDFTLTINPVEADDVATYYCQQTDEDPYTFGGGTKLEIK | 21% | 28% | 50% | 47% | 23% | 18% | – | 0.14 nM | 0.016 nM
3 | 2.8.6 (antibody, IgG1, V domains shown) VH: QVQLKESGPGLVAPSQSLSITCTVSGFSLTTYGVHWVRQSPGKGLEWLGVMWPGGRTSYNPAPMSRLSISKDNSKSQVFLKMNSLQTDDTAMYYCVRGDYEYDYYAMDYWGQGTSVTVSS VL: QIVLSQSPAILSASPGEKVTMTCRASSSVSYMHWYQQKPGSSPKPWIYATSNLASGVPARFSGSGSGTSYSLTISRMEAEDAATYYCHQWSSNPYTFGGGTKLEIK | 23% | 35% | 58% | 67% | 30% | 36% | – | 0.22 nM | 0.029 nM
4 | 6.2 (antibody, IgG1, V domains shown) VH: EVKLVESGGGLVKPGGSLKLSCAASGFTLSSYGMSWVRQIPEKRLEWVASIRSDGNTYYPDSVKGRFIISRDNARNILYLQMSSLRSEDTAMYYCTRGGYYGSSPYYWGQGTTLTVSS VL: DIVMSQSPSSLPVSVGEKISMTCKSSQSLLYSSNQKNYLAWYQQKPGQSPKLLIYWASTRDSGVPDRFIGSGSGTDFTLTINSVKAEDLAVYYCQQYYNYLTFGAGTKLELK | 19% | 21% | 53% | 61% | 31% | 35% | 26% | – | –
5 | 16H2 (antibody, IgG1, V domains shown) VH: EVQLQQSGPELVQPGASVKISCKASGYTFTDYYMIWVKQSHGKSLEWIGNINPNNGGTTYNQKFKGKATLTVDKSSSTAYMGLPSLTSEDSAVYYCARGGLRPLYFDYWGQGTTLTVSS VL: NIVMTQSPKSMSMSVGERVTLSCKASENVDTYVSWYQQKPEQSPKLLIYGASNRYTGVPDRFTGSGSATDFTLTISSVQAEDLADYHCGQSYSYPLTFGAGTKLELI | 11% | 23% | 51% | 60% | 40% | 26% | 29% | – | –
6 | 4B1 (antibody, IgG1, V domains shown) VH: QVQLQQSGAELARPGASVRLSCKASGYTFTSYGLIWLKQRTGQGLEWIGEIYPRSGSTYYNEWFKGKATLTADKSSNTAFMELRSLTSEDSAVYFCARRRGTGDGFDYWGQGTILTVSS VL: DIQMTQTTSSLSASLGDRVTISCSASQGISNYLNWYQQKPDGTVKLLIYYTSSLHSGVPSRFSGSGSGTDYSLTISNLEPEDIATYYCQQYIELPFTFGSGTKLEIK | 14% | 18% | 47% | 41% | 33% | 30% | 23% | – | –
7 | 8B4 (antibody, IgG1, V domains shown) VH: QVQLQQSGAELARPGASVKLPCKASGYTFTSYGISWVKQRTGQGLEWIGEIYPRSGTTYYNEKFKGKATLTADKSSSTAYMELRSLTSEDSAVYFCARRISSGSGVDYWGQGTTLTVSS VL: DIQMTQTTSSLSASLGDRVTISCSASQGISNYLNWYQQKPDGTVKLLIYYTSSLHSGVPSRFSGSGSGTDYSLTISNLEPEDIATYYCQQYSELPWTFGGGTKLEIK | 20% | 4% | 51% | 47% | 33% | 23% | 24% | – | –

Next, values leading:

Row | AntiCD3/CD28 (CD4 T cell proliferation) repeat 1, % inhibition [1] | AntiCD3/CD28 (CD4 T cell proliferation) repeat 2, % inhibition [1] | AntiCD3/CD28 (CD69+ CD4 T cells) repeat 1, % inhibition [1] | AntiCD3/CD28 (CD69+ CD4 T cells) repeat 2, % inhibition [1] | MLR (CD4 T cell proliferation) repeat 1, % inhibition [1] | MLR (CD4 T cell proliferation) repeat 2, % inhibition [1] | T cell reporter (NFkB signaling), % inhibition [2] | IC50, inhibition of NFkB-GFP reporter in BTLA transfected Jurkat cells [3] | IC50, inhibition of CD4 T cell proliferation in a mixed lymphocyte reaction [4] | Binder
8 | 10% | 8% | 50% | 53% | 25% | 34% | 24% | – | – | 831 (antibody, V domains shown) VH: DVQLQESGPDLVKPSQSLSVTCTVTGYSITSGYSWHWIRQFPGNKLEWMGYIHYSGSTNYNPSLKSRISITRDTSKNQFFLQLSSVTTEDTATYYCASGPHRYDGVWFAYWGQGTLVTVSS VL: EIVLTQSPTTMAASPGEKITITCSASSSISSNYLHWYQQKPGFSPKLLIYRTSNLASGVPARFSGSGSGTSYSLTIGTMEAEDVATYYCQQGTNIPLTFGAGTKLEIK
9 | 13% | 23% | 52% | 44% | 23% | 31% | 22% | – | – | 24H7 (antibody, IgG1, V domains shown) VH: QVQLQQSGAELVRPGASVTLSCKASGYTFTDYEIHWVKQTLVHGLEWIGPIDPDTGNTAYNQNLKGKAILTADKSSSTAYMELRSLTSEDSAVYYCTRGGYDSDWGFAYWGQGTLVTVSA VL: DIVMTQATPSVPVTPGESVSISCRSSKSLLHSNGNTFLFWFLQRPGQSPQLLIYRMSDLASGVPDRFSGSGSGTAFTLRISRVEAEDVGIYYCMQHLEYPFTFGSGTKLEIK
10 | 10% | -4% | 39% | 35% | 8% | 17% | 23% | – | – | 21C7 (antibody, IgG1, V domains shown) VH: QIQLQQSGPELVKPGASVKISCKASGYAFSSSWMNWVKKRPGKGLEWIGRIYPGDGDANYNGKFKGKATLTADKSSSTAYMQLSSLTSEDSAVYFCAGEGHYYGSGYRWYLDVWGTGTTVTVSS VL: DIQMTQSPASLSVSVGETVTITCRASENIYSNLAWYQQKQGKSPQLLVYAATNLADGVPSRFSGSGSGTQYSLKINSLQSEDFGSYYCQHFRGAPFTFGSGTKLEIK
